The results in this text go back to patent publication US20190031713A1.

The target in the assay is Protein A (on chromatography support) (UniProt P38507). Nature of the assay: Protein A column, linear pH gradient.

Substance “IgG1 heterodimer with two IgG1 heavy chains identical but for an H435R/Y436F dipeptide modification in one CH3 domain (from UniProt P01857 1-330) (antibody)” returned an elution pH from Protein A column of 3.9 pH.
In turn, “IgG1 homodimer (unmodified CH3) (antibody)” yielded an elution pH from Protein A column of 3.7 pH.
